Results taken from IntAct's records for PubMed 25766235.

B1: Regulator of G-protein signaling 2 (Homo sapiens), P41220-1 (parent)
chain: MQSAMFLAVQHDCRPMDKSAGSGHKSEEKREKMKRTLLKDWKTRLSYFLQNSSTPGKPKTGKKSKQQAFIKPSPEEAQLWSEAFDELLASKYGLAAFRAFLKSEFCEENIEFWLACEDFKKTKSPQKLSSKARKIYTDFIEKEAPKEINIDFQTKTLIAQNIQEATSGCFTTAQKRVYSLMENNSYPRFLESEFYQDLCKKPQITTEPHAT
partner: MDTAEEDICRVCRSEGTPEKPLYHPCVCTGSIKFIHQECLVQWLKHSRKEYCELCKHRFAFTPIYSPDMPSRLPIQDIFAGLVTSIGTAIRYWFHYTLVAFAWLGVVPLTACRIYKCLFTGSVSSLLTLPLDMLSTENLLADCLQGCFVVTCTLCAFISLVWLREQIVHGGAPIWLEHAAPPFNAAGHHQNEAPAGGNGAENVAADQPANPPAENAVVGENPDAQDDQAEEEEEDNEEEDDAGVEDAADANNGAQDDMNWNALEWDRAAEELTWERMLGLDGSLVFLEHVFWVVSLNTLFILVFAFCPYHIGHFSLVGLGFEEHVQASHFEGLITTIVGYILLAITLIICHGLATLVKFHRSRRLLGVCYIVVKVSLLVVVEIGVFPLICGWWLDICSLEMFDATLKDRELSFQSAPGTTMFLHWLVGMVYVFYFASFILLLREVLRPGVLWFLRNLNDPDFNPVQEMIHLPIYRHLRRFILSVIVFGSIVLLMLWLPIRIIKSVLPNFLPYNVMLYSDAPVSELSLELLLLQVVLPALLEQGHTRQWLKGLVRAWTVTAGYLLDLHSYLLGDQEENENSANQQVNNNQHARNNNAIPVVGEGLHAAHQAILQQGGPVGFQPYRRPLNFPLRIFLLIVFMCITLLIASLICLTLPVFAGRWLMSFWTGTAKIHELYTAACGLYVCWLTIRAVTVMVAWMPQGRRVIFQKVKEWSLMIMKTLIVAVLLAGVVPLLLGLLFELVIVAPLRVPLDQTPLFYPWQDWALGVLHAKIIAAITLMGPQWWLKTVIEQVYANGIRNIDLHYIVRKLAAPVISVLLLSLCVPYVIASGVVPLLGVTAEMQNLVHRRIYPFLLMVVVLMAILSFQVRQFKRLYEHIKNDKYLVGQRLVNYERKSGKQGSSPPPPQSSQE

Variants of: B1
Settings: with marh6_human MARCHF6, O60337

| Variant | effect of a mutation on the interaction |
| --- | --- |
| M1P | disrupting interaction strength |
